# Measured values taken from patent US20110195021A1 (IMMUNOGEN, published 2011).
# Read-outs that look alike come from different tables or passages of the source.
# B1: rituximab (antibody, V domains shown)
# VH: QVQLQQPGAELVKPGASVKMSCKASGYTFTSYNMHWVKQTPGRGLEWIGAIYPGNGDTSYNQKFKGKATLTADKSSSTAYMQLSSLTSEDSAVYYCARSTYYGGDWYFNVWGAGTTVTVSA
# VL: QIVLSQSPAILSASPGEKVTMTCRASSSVSYIHWFQQKPGSSPKPWIYATSNLASGVPVRFSGSGSGTSYSLTISRVEAEDAATYYCQQWTSNPPTFGGGTKLEIK
# B2: muCD20-6 (antibody, mouse IgG1, kappa, V domains shown)
# VH: QIQLVQSGPELKKPGETVKISCKASGYKFTNVGMNWVKQVPGKGLKWMGWINTYTGEPAYADDFKGRFVFSLETSASAAFLQINNLKNEDTATYFCARGAYYRYDLGMDYWGQGTSVTVSS
# VL: DIVLTQSPASLAVSLGQRAIISCRASESVDNFGNSFMHWYQQKPGQPPTLLIYRASNLESGIPARFSGSGSRTDFTLTVNPVEADDIATYYCQQSYEDPFTFGAGTKLELKR
# notes: Murine monoclonal antibody purified from hybridoma (ATCC PTA-10486); also called murine CD20-6
# B3: chCD20-7 (antibody, V domains shown)
# VH: QLQLVQSGPELKKPGETVKISCKASGYSFTNYGMNWVKQAPGKGLKWMGWINTYTGEPSYADDFKGRFAFSLETSASTAYLQISNLKNEDTATYFCARGAYYRYDLGMDYWGQGTSVTVSS
# VL: DIVLTQSPASLAVSLGQRATISCRASGSVDSFGNSFMHWYQQKPGQPPKLLIYRASNLESGVPARFSGGGSRTDFTLTINPVEADDIATYFCQQSYEDPFTFGAGTKLELMR
# notes: Chimeric antibody: CD20-7 variable regions cloned into pchCD20-7HCN and pchCD20-7LCZ and expressed in HEK-293T cells; also called chimeric CD20-7
# B4: muCD20-7 (antibody, mouse IgG1, kappa, V domains shown)
# VH: QLQLVQSGPELKKPGETVKISCKASGYSFTNYGMNWVKQAPGKGLKWMGWINTYTGEPSYADDFKGRFAFSLETSASTAYLQISNLKNEDTATYFCARGAYYRYDLGMDYWGQGTSVTVSS
# VL: DIVLTQSPASLAVSLGQRATISCRASGSVDSFGNSFMHWYQQKPGQPPKLLIYRASNLESGVPARFSGGGSRTDFTLTINPVEADDIATYFCQQSYEDPFTFGAGTKLELMR
# notes: Murine monoclonal antibody purified from hybridoma (ATCC PTA-10487); also called murine CD20-7
# How the values were obtained:
# [1] = biological target: T1, human CD20 (human, UniProt P11836 1-297); assay: flow cytometry on 300-19 cells transfected with wild type human CD20
# T1 construct: whole, on cells; also called wild type CD20; MS4A1
# T1 sequence (looked up): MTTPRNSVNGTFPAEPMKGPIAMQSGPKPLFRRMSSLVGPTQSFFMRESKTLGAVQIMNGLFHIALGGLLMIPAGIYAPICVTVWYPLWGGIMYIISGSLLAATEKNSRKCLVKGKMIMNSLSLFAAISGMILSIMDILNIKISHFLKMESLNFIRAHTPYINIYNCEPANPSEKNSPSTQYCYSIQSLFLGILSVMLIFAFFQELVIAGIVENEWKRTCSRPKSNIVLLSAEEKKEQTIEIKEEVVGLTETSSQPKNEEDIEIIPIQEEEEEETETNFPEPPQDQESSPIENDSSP
# [2] = biological target: human CD20 (human) (UniProt P11836); assay: flow cytometry on SU-DHL-4 cells
# [3] = biological target: human CD20 (human) (UniProt P11836); assay: cell-based or functional assay
# [4] = biological target: T1, human CD20; assay: flow cytometry on 300-19 cells transfected with wild type human CD20; remark: listed apart in the source
# [5] = biological target: T2, CD20-A170S P172S variant (human, UniProt P11836 1-297); assay: flow cytometry on 300-19 cells transfected with human CD20 A170S P172S
# T2 construct: Stably expressed on 300-19 cells; also called CD20-AP; CD20AP
# T2 chain: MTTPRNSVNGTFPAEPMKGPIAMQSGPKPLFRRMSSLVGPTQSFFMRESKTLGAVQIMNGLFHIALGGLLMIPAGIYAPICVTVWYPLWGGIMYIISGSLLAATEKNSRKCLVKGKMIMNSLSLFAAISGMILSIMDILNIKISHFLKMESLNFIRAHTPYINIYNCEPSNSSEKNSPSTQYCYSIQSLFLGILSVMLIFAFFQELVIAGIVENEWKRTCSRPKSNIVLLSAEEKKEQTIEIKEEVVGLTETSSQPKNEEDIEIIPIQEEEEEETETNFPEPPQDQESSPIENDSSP
# [6] = biological target: T1, human CD20; assay: flow cytometry on BJAB cells, apparent dissociation constant from the MFI dose-response curve; muCD20-6 on BJAB cells
# Procedure: (§1) Binding specificity was tested by flow cytometry using purified antibodies. […] Then, the cells were pelleted, washed, and incubated for 1 h with 100 μL of FITC-conjugated goat anti-mouse IgG-antibody (such as is obtainable from, for example Jackson Laboratory, 6 μg/mL in FACS buffer). The cells were pelleted again, washed with FACS buffer and resuspended in 200 μL of PBS containing 1% formaldehyde. Samples were acquired using a FACSCalibur flow cytometer with the HTS multiwell sampler or a FACS array flow cytometer and analyzed using CellQuest Pro (all from BD Biosciences, San Diego, US).
# (§2) Data analysis was performed using CellQuest Pro (BD Biosciences, San Diego, US) and for each sample the mean fluorescence intensity for FL1 (MFI) was exported and plotted against the antibody concentration in a semi-log plot.
# [7] = biological target: T3, CD20 N163D (human, UniProt P11836 1-297); assay: flow cytometry on 300-19 cells transfected with human CD20 N163D
# T3 construct: whole, on cells; Stably expressed on 300-19 cells
# T3 sequence (looked up): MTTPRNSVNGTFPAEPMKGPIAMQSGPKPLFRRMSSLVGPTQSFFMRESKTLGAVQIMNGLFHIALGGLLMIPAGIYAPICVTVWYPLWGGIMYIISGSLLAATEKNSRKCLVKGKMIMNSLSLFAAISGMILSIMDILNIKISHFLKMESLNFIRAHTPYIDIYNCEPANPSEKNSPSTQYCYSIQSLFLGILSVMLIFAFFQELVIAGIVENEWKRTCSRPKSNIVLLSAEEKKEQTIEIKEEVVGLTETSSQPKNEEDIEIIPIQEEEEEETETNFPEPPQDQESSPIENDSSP
# [8] = biological target: T1, human CD20; assay: flow cytometry on 300-19 cells transfected with wild type human CD20; remark: listed apart in the source
# [9] = biological target: T1, human CD20; assay: flow cytometry on BJAB cells, apparent Kd
# Procedure: as §1, §2
# The value for the apparent dissociation constant (Kd) of each antibody was calculated using GraphPad Prism v4 (GraphPad software, San Diego, Calif.).
# [10] = biological target: T4, CD20 N163D N166D (human, UniProt P11836 1-297); assay: flow cytometry on 300-19 cells transfected with human CD20 N163D N166D
# T4 construct: whole, on cells; Stably expressed on 300-19 cells; also called CD20-NNDD
# T4 sequence (looked up): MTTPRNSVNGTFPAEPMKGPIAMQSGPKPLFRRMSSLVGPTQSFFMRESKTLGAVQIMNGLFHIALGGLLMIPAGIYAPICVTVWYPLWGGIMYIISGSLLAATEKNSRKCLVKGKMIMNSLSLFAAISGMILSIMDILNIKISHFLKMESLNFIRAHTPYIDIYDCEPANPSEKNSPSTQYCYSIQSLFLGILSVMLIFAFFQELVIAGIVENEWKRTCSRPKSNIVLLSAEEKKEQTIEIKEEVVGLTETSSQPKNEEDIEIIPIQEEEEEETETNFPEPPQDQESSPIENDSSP
# [11] = biological target: T1, human CD20; assay: flow cytometry on BJAB cells, apparent dissociation constant from the MFI dose-response curve; muCD20-7 on BJAB cells
# Procedure: as §1, §2
Molecule,binding result [5],binding result [7],EC50 (read off the curve) [8] [nM],Kd [9] [nM],other results
B1 (antibody),,,,,EC50 (read off the curve) [1]: 0.4 nM
rituximab-SMCC-[^3H]DM1 (antibody),,,,,"EC50 (read off the curve) [2]: 1 nM; IC50, cell-based viability assay, CD20-positive SU-DHL-4 cells [3]: 0.24 nM"
B1,,,,,EC50 (read off the curve) [4]: ~0.5 nM
B2,binds,no binding (tested: 10^-7.5 M (about 3x10^-8 M)),~0.8,,Kd [6]: 0.4 nM
B3,,,,0.5,
B4,binds,no binding (tested: 10^-7.5 M (about 3x10^-8 M)),~0.5,0.4,binding result [10]: no binding (tested: 10^-7.5 M (about 3x10^-8 M)); Kd [11]: 0.3 nM
